This assay has as its target epidermal growth factor receptor (EGFr) (human (endogenous in human breast tumours)) (UniProt P00533). Kind of assay: radioligand binding; labelled EGF on membrane protein of human breast tumours; multipoint Scatchard analyses and 2 point assays; saturation assay with 1 nM labelled EGF, 100 ug membrane protein, 100 nM unlabelled EGF for non-specific binding, volume 400 ul with buffer; constant of the high affinity site (2 binding sites found).

As for “epidermal growth factor (EGF), labelled (from UniProt P01132 977-1029) (ligand)”, the KD, high affinity site fell in the range of 0.3 to 0.6 nM.
